Results: the Human Domainome abundance scans (Beltran et al. 2025)

B1: Ankyrin-3, residues 4094 to 4171; numbered along this chain, Q12955 (parent)
chain: MAIVADHLGLSWTELARELNFSVDEINQIRVENPNSLISQSFMLLKKWVTRDGKNATTDALTSVLTKINRIDIVTLLE

Variants of: B1
Assay: abundance fitness (aPCA) (normalised: wild type 0, dead -1); higher = more abundant; growth selection in yeast, the domain comes from the species named
Settings: Homo sapiens

Abundance fitness: each site, then its substitutions
L45: A -0.862; H -0.449; S -0.881; C -0.444; I -0.302; R -0.865; G -0.906; Q -0.833; E -0.851; P -0.92; W -0.862; V -0.603; M -0.193
Q40: P -0.646; H -0.622; L -0.833; D -0.726; C -0.127; K -0.35; T -0.725; F -0.74; G -0.74; A -0.064; I -0.663; V -0.894; S -0.312; N -1.03; R -0.407; Y -0.672; W -0.736
Q28: N -0.2; R -0.071; W -0.768; T -0.223; P -0.652; Y -0.298; S -0.094; V -0.399
N35: P -0.665; I -0.337; C -0.212; E -0.082; T -0.018; Q -0.077; R -0.128; G -0.065; V -0.48; F -0.499; H -0.266; L -0.626; S -0.174; D -0.053; A -0.215; Y -0.307; W -0.487; K -0.329
L37: R -0.526; G -0.413; Q -0.032; E 0.026; C -0.15; P -0.089; W -0.395; M -0.014; N -0.359; K -0.169; F -0.231; D -0.254; A -0.095; V 0.048; H -0.107; Y -0.141; S -0.132; T -0.03
V31: M -0.191; W -0.165; E -0.139; K 0.044; F -0.086; L 0.087; G -0.089; Q 0.003; P -0.929; C 0.049; A -0.07; T 0.026; R 0.041; S -0.006; D 0.058; H 0.145; Y 0.057
W48: V -0.887; G -0.811; S -0.928; C -0.868; R -1; T -0.876; L -0.715; M -0.635; I -0.83; H -0.752; Q -0.808; P -0.923
R30: G -0.385; A -0.022; L -0.033; Q -0.188; I 0.064; V -0.172; P -0.232; E -0.088; Y -0.061; W -0.453; K -0.02; C -0.112; F -0.628; S -0.074; M 0.111; T -0.158
S41: T -0.211; G -0.047; N -0.748; A 0.032; I -0.74; M -0.815; F -0.815; V -0.851; E -0.912; R -0.725; C -0.538; P -0.972; Y -0.67
K46: Q 0.124; R -0.018; G -0.337; N -0.044; M -0.204; P -0.915; V -0.373; S -0.024; L -0.377; E -0.013; I -0.581; Y -0.665; H -0.195; F -0.762; C -0.432; T -0.061; W -0.541
L44: C -0.116; S -0.914; R -0.796; P -0.867; E -0.902; V -0.171; Y -0.693; G -0.93; Q -0.784; M -0.074; T -0.561; I -0.371; A -0.391; D -0.695; H -0.75; W -0.806
M43: S 0.005; A 0.047; D 0.028; W -0.168; C 0.1; F -0.265; K -0.185; H 0.014; E 0.056; G 0.02; I -0.431; L -0.152; T 0.033; V -0.074; P -0.892; R -0.128
I38: V 0.027; C -0.038; T -0.122; D -0.286; Q -0.133; G -0.006; M 0.009; H -0.167; P -0.041; K 0.05; A -0.02; N 0.234; L -0.183; W -0.039; R 0.089; E 0.15; S 0.078
P34: R -0.26; C -0.7; H -0.268; A -0.245; E -0.24; N -0.331; M -0.658; T -0.366; L -0.874; Q -0.067; W -0.9; V -1.11; K -0.561; F -0.479; S -0.145; D -0.268; G -0.299
N33: E 0.055; C 0.034; R -0.148; P -0.812; H -0.023; T -0.091; L -0.755; S -0.014; K -0.208; W -0.204; M -0.143; F -0.082; G -0.607; Q 0.093; Y -0.168
I29: P -0.808; T -0.752; V -0.302; G -0.927; F -0.765; E -0.174; R -0.857; W -0.979; H -0.389; S -0.846; A -0.768; L -0.456; C -0.741
S36: Q -0.336; E -0.172; M -0.778; L -0.933; K -0.626; G -0.28; A -0.609; H -0.295; T -0.297; C -0.184; D 0.155; R -0.449; P -0.878; F -0.717; V -0.952; N -0.044
K47: F -0.138; T -0.149; P -0.956; H -0.11; L -0.099; W -0.124; S -0.068; V -0.487; C -0.369; Y -0.39; Q -0.19; E -0.235; M -0.005; G -0.31; D -0.177; N -0.033
V49: C -0.095; I -0.041; K -0.093; G -0.168; F -0.154; E 0.087; A 0.022; D -0.392
E32: R -0.126; Q -0.1; V -0.316; W -0.839; C -0.249; S -0.185; K -0.48; T -0.155; M -0.106; N -0.074; H -0.396; G -0.202; A -0.039; Y -0.278; P -0.593; I -0.621; D 0.011
S39: E -0.103; G -0.048; T -0.016; L -0.184; W -0.47; D -0.013; P -0.685; V -0.209; H -0.084; Q 0.087; A 0.05; F -0.434; K 0; R 0.001; C -0.011; N 0.142; Y -0.616; M -0.071
F42: I -0.03; G 0.113; H 0.119; Q 0.074; D 0.165; Y 0.023; M 0.102; A 0.043; T 0.086; S 0.174; R 0.188; L -0.063; V 0.042; N 0.104; K 0.201; W 0.022
